Assays:
white blood cells = settings: mice, about 2 mg/kg dose, 28 days
Experimental: A group of 6 mice are administered various dosages of the cobalamin-paclitaxel bioconjugate prepared in accordance with Example 1 over a 28 day period. The effects to the viable circulating endothelial cell precursors and white blood cells are measured after 28 days.

[1] = tested on: bFGF-stimulated formation of new blood vessel in the Matrigel plug; experiment: Matrigel plug perfusion in vivo assay (anti-angiogenic efficacy); settings: mice, Matrigel and bFGF
Source text: The assay uses Matrigel, a gelatinous protein mixture secreted by mouse tumor cells and marketed by BD Biosciences, to duplicate tissue environments. Matrigel is liquid at room temperature, but when injected into the animal, forms a solid plug. If a growth vessel stimulant such as basic fibroblast growth factor (bFGF) is mixed with the Matrigel, the bFGF stimulates the formation of new blood vessel in the plug, which can be monitored in the animal via fluorescence techniques. In the current study, Matrigel is injected either alone or with bFGF subcutaneously into mice.

CC(=O)O[C@H]1C(=O)[C@@]2(C)C([C@H](OC(=O)c3ccccc3)[C@]3(O)C[C@H](OC(=O)[C@H](OC(=O)C[NH+](C)CC[CH2][Co+][N]4/C5=C(/C)C6=N/C(=C\C7=NC(=C(/C)C8=NC(C(C)C4C(CC(N)=O)C5(C)CCC(=O)NCC(C)OP(=O)([O-])OC4C(CO)OC(n5cnc9cc(C)c(C)cc95)C4O)C(C)(CC(N)=O)C8CCC(N)=O)/C(C)(CC(N)=O)C7CCC(N)=O)C(C)(C)C6CCC(N)=O)[C@@H](NC(=O)c4ccccc4)c4ccccc4)C(C)=C1C3(C)C)[C@]1(OC(C)=O)COC1C[C@@H]2O.[Cl-] (some centres unmarked) [cobalamin-paclitaxel bioconjugate, Cbl—(CH2)3N(CH3)CH2COO-2′-PTX]
toxicity by white blood cell count (white blood cells): no neutropenia
anti-angiogenic performance compared with DC101 [1]: better performance than that of DC101

— patent US20080233135A1, “Cobalamin taxane bioconjugates” (priority 2007, published 2008)
